{"source": "the DeepSol protein solubility set"}
{"experiment": "soluble on expression in E. coli; label from the status in PepcDB or PDB records"}
{"sequence": "MDFTIPLQLQSNTPIYLQIYEYIKAEIIQGTISVGTRLPSHRNLASQLNISRITVESAYQQLLAEGYAESKPKRGIFVANFDIDIIPNKKRNAAKKTNNLIEEKFEYDCSQGLIDQNAFPITNWKRALQESILIYENALFAKEDPQGEFALREHISTYLYHSRGVHSSPDQIVIGAGTQPLLWLLLQLLGPTKEYGIENPGFHRIHAIIKSCDRQIHPIPLDEKGIDISSLYNTNSNVAYVTPSHQFPLGIIMPLSRRLELLKWANDCNGYIIEDDYDGEFRYAGKPIPSLQSLDSNERVIYMGTFSKSFLPSLRMGYVVLPPHLLKTYQELHGIFKQTVATIQQLAFANFIQSGNWERHLNRSRTLYKRKHHTLVKSIMKEMGANVQILGEQSGLHIVLCVNNSMNENELIESAKKQSVKLYPLSPYDFVNDLRKESYVLLGFGSIPENKIETLATLLKDAWFPSCKETC", "soluble on expression in E. coli": "not soluble"}
{"sequence": "STTALCRMNMILHNSATADIAKGGSSTLSNPLFTTENGMLKTFDYVVANPPFS", "soluble on expression in E. coli": "not soluble"}
{"sequence": "GHVSDRPAGRMPLTVHRNVGRWLSEILHASIRDTGVSSRIEFVRRTLHGWVREEYSETELPNAVYRNLYFPVLDAQPAHAGSGKIETISECDRLKNLVRNVTDTLVENYPQGLESEALLIALDGVKLELARIRKDIEMYGDPRKR", "soluble on expression in E. coli": "soluble"}
{"sequence": "IDFRTNKSKDAVIVVELASPAAIVDVKRVQEGLSIDLMNTSVKDEQLYLLDVKDFATVVESVEVFRDTSTTRLVAYIDEEYTHDYRLTGRYLEITVSKLKPNEKV", "soluble on expression in E. coli": "not soluble"}
{"sequence": "MIGKCTHVVDCRETMGMGEGGGIAQRGTFAQCGSEVLAVAMSPGRRHITKPVCEITFALREANIMTSTIVLNAGAGVPQDAPSAGAGSLFGLTPAEVEQMKRHKLLVVHLGGVKNHITYKARLILRNVDRPCIIICEYPVDFEDFAKIGVRTRAVMPDEPKTKGTIVDIVSGVIRGETCPQEKLDEIIRKVKLALGGALEHHHHHH", "soluble on expression in E. coli": "not soluble"}
{"sequence": "MGSDKIHHHHHHMSHLALQPGFDFQQAGKEVLEIEREGLAELDQYINQHFTLACEKMFNCTGKVVVMGMGKSGHIGRKMAATFASTGTSSFFVHPGEAAHGDLGMVTPQDVVIAISNSGESSEIAALIPVLKRLHVPLICITGRPESSMARAADVHLCVKVPKEACPLGLAPTSSTTATLVMGDALAVALLKARGFTAEDFALSHPGGALGRKLLLRVSDIMHTGDEIPHVNKHATLRDALLEITRKNLGMTVICDESMKIDGIFTDGDLRRVFDMGGDMRQLGIAEVMTPGGIRVRPGILAVDALNLMQSRHITSVLVADGDQLLGVLHMHDLLRAGVV", "soluble on expression in E. coli": "not soluble"}
{"sequence": "MMFVKNNFNTNNFDAELVEAIGNRLENNQFSDAILAGTKYLTTLLREKGQCEGDGAQLVGTVLGGQSPRIQINSLQSVSEQDEQRGFEALLRGYYQCIRNPRTHDNFPDTEDSCMRILIMLDTFIKYLKRDVAEFDYTAILERIYEVHFVNNSDYAEALISQIPEKKLLDFFQSLISRFNERPTKEIDSIFKAINQRFSGEEEKAAMRLLGDELRKASNNVEFANVFRIIKPSAWRNLPDDVLIRMENIIIEECKKGYLDFYSDATKGAIGTWGNTFGSKFKRRGDLGDALIGLLYDSWYTQNYVAKYYVFSIPSIITDDVKVKELADALAYATIVNGAKLLRTKLIDACKNYPDKLKEHLRDAVQQRMDSDKKYAEELLGQIS", "soluble on expression in E. coli": "not soluble"}
{"sequence": "MKRYPRDMRGHGPTPPDAAWPGGARIAVSIVLNYEEGGENCLLHGDAQSEAFLSDIAGAQPWPGQRHWNMESIYDYGARAGFWRLHRLFTGLNIPVTVYGVATALARSPEQVAAMKSAGWEIASHGLKWVEHRDMPEEEERRQIAEAIRLHAEVVGERPRGWYTGRCSVNTVRLTAEEGGFDWISDTYDDDQPYWLETGTRDQLVIPYTLEANDMRFATAPGYIEGEQFFTYLRDSFDTLYAEGCAGQAKMFSIGLHCRLIGRPGKIAGLKRFLDYARTHERVWFPCRGDIARHWHETHPHRRRPRPSRMDRESFVAHFGGIYEHSPWIAERAFELELGPAHDSPAGLANALARIFRSATPAERLSVLKAHPDLAGKLAQARRLTASSSFEQSSAGLDALTDAERAEFATLNADYVAKHGFPFIIAVRDHDKAGILAAFETRLAHDSATEFATACRQVERIAELRLQDMLKLEHHHHHH", "soluble on expression in E. coli": "not soluble"}
{"sequence": "MGSDKIHHHHHHMTYSKQSEWREIQSYLPKKYHFTDNYHPTEEWWNWKGHEVHLDCFRNEKAPVKVILLHGVGTNGRQMSMILGGPLSKDGFETIAIDMPTYGVTKVKKGSVVKYDDWVDLACDYIDYEQQRDDRPIVLYGLSAGGMETYHVAAKNKKVKGIIGMTFLDQKNQQVRDETAKNLVMSRVGIPMAGIACNIGLENFKMKMSTASKMSALCNNEKVMEIFNRDKTSAANKASMRFLDSYGNYQPAMEPEDFDVCPILLTQPEQDKWTPLHLSTPFLNKIKKVDVKIVMLENGGHYPVEQPALDQMHDAIVEFIYKVTK", "soluble on expression in E. coli": "not soluble"}
{"sequence": "MSLRIAVVGATGRIGSKLTRTLLGAGHQVKALSRGGAALEALVEAGAEPFLGSFDTGAGALDTFFQDVEAAFLMVKTDWNNIEGHYPAVAQRFVDALRGSPVKLAVSLSAMGSDVDGKTGHFELFHHLDQRLNELNDIDMVHLRAAWFMENTLAWTASVAKYGRLAWFYEPDLKMPWVATDDIAGLAAKELTNPTGDHRVIRETGSEDLTMNELAAMIGREIGKPVEYRFIDRGRKEIENEYLARFGTPEHWLDDSRSADALNHGVVRFQGGDDVRPVLPTTMEAFLKTIWTPRYLEALASEEGHHHHHH", "soluble on expression in E. coli": "soluble"}
{"sequence": "MKQLYWYTCGEGDCDLVLLHGWGLNSGVWHCIIDRLAPHFRLHLVDLPGYGRSQDYGAMSLADMAERVAQQAPKQALWLGWSMGGLVASQIALSQPECVRGLITVSSSPCFTARDEWPGIKPEVLAGFQHQLSDDFHRTVERFLALQTLGTESSRQDARLLKSVVLQHQMPDVEVLTGGLAILRTADLRTALAGFTLPFMRVYGHLDSLVPRKVASLLDSAWPQTQSVVMQGAAHAPFISHPNDFAKLILNFAEENKK", "soluble on expression in E. coli": "not soluble"}
{"sequence": "MAHHHHHHMEGFPLGLAVIIDPPREKESGAMVEAHAARDNGSAAGSLSNGETNTADTGGDAYSGHSINNREQVPIALHNVCPTRFLWSRYEENGGMLLHMPRSKVCREHRKGLCRFGNECSFLHVCRQMPIGSGDEELLSHSRTPLRHSTVQGSMQDFSHPPSFATASGSLCHHAHSQSYSQANLQHFQGSTVMSQNGSYMDGSLGNSQTGSRPHLSRAPTASESYGGHQPLLRPLGGVQNSHSSVAARGSFSHNPYAEASSFQS", "soluble on expression in E. coli": "not soluble"}
{"sequence": "MSLRNIKWAILGPGTIARDFAKAISEVDNNIYAVASRNIERAKKFANEYKAEKFYGDYDEMLRDENIDVVYISTPHCNHYEYIIKSLENNKHVFCEKAITVNGNQLKEIVDLANKKNLIVREAMTIYHMPLYKKLRELVDEGKIGKVKMIQVSFGSLKEYDVNNRFFSKDLAGGALLDIGTYALSFTRYFLSSQPEEILTTVKKFETGVDEQSGIILKNAEDEMAVISLTMRAKQPKRGVVAGEKAYITVENFPRADKATITYPDGSVEVVEAGETDRALVYEVQDMKACILNKDTDYTLQLSLGVMNIMDEVRSQWGIRYPFEEGHHHHHH", "soluble on expression in E. coli": "soluble"}
{"sequence": "RSDSMILMTVNPKTKKTTMMSLERDILTRIESGNGQAHEAKLNSAYADGGAELAIETIQKMMNIHIDRYVMVNMRGLQKLVDAVGGITVNNILGFPISISDQEEFNTISIGVGEQHIGGEEALVYARMRYQDPEGDYGRQKRQREVIQKVMEKALS", "soluble on expression in E. coli": "not soluble"}
{"sequence": "MGQSFSSSFNAKQTSSSTPQKSTKTPTCSDPRSPSQDIERTPIQVKTVENDENGSSESSTTKADKPRKTSLRQKMFARKKNMNSETDE", "soluble on expression in E. coli": "not soluble"}
{"sequence": "MAILITGGAGYIGSHTCVELLNNNYKIIVVDNLSNSSIESLNRVKEITGKQFEFYKENVLNREKMNEIFLENNIEAVIHFAGFKAVGESTTTPLAYYYNNIISAIVLCDVMQKHNVKNFIFSSSATVYGIPKTLPITEEFPLSVTNPYGQTKLMIEQIMRDVAKADDEWSIALLRYFNPFGAHQSGRIGEDPNGIPNNLMPYVTQVAVGKLKELNIFGNDYPTKDGTGVRDYIHVVDLAKGHVKALEKVLKTKGIEAYNLGTGKGYSVLEMVKAFEKVSGKKIPYKVIGRRPGDVAICFADVSKAKRELGWEAEYGLEEMCVDSWRWQVNNKNGYQMI", "soluble on expression in E. coli": "not soluble"}
{"sequence": "MRYNQSDNKPFEEVLEASLSRRSILKGGLGISAMTAFGAFGLAGCNSSSSGTSASNGSGVSKAVLNFDSIPGSLTDAVSIPQGYTAQVLVPWGTPLNAQGSAWKNDGSNTSSDQLNALGMHHDGMHFFPLNDSTTDGLLCINHEYIDTSALHPNGPTVANGVRTIVDEVRKEINAHGVSVVRIQLEDNMWKLADTDPLNRRYTGATVMDLSGPVAHTALTVTRFSPDGSQARGTLNNCGNGYTPWGTYLTCEENWPGYFVNAGTRTEEQDRIGVDDKSTRYLWETLAGNSEERLDEFTRFNVAPTGTSSADDYRNEANGHGYIVEIDPYTQNSRAKKRTALGRFRHEGCAFGKLEAGKPVVFYSGHDSRFEYLYKFESAAAWDPADANPANRLATGDKYMDEGTLYVARFNEDSTGTWLPLTLDSVTTSGGTLADHFNSLAEIIINTAGAADLVGATPMDRPEWCSVDPFTGSVYLTLTNNTRRTDETNPANPRLNNKFGHVIRWDEGTSATDFTWDIFVFGSPANGDADTNRSGLNELNQFASPDGLAFDGRGILWIQTDNGADEVTSYTNDQMLAVVPSKLTNENGAQAVIGADNQAELKRFFVGPNGCEVTGFTISPDYKSLFVNIQHPGNWPYSDDAAQETPAGTTVRPRAATVVIRREDGGEIAVLEHHHHHH", "soluble on expression in E. coli": "soluble"}
{"sequence": "SVSEIQLMHNLGKHLNSMERVEWLRKKLQDVHNF", "soluble on expression in E. coli": "soluble"}
{"sequence": "MLRRYSHFYSIRYSSTLLSTLDGLTNRTSGDKLLTYSEKFSKLYANSTPETRKSIFVDLVTNYGVNKEALNHAISLYSKNDQMYPEVRTSATASYVNLIKSIGNLPGGVMQVCEMRANILALLKRETDKTTTSYLRHIELATREVLTSWFSLGNLKLERLTWSSPGDILQKVAEYEAVHPVRGLSDFRKRLGPLRRCFYFSHEALPRNPLVMVHVALVDEIADSVQEITKRGAPTGKEEDQTTAIYYSITSTQPGLSGIDLGNMLIKKVATKLQKDVPSVTTHSTLSPIPGFRPWLIRNLKGNSEYPSIMNEKVVNWISDISEREMNEVEATETLLKVISNEKTKKEQLNAIQHILMYACAHYLCNAKRNGMALNSVANFHIRNGAELYRLNWNGDTSHRGINNSFGIMVNYRYDLEKVHENSAAYTEHKKMAINQKVLDIF", "soluble on expression in E. coli": "not soluble"}
{"sequence": "MPEPTPTAYPVRLDELINAIKRVHSDVLDQLSDAVLAAEHLGEIADHLIGHFVDQARRSGASWSDIGKSMGVTKQAAQKRFVPRAEATTLDSNQGFRRFTPRARNAVVAAQNAAHGAASSEITPDHLLLGVLTDPAALATALLQQQEIDIATLRTAVTLPPAVTEPPQPIPFSGPARKVLELTFREALRLGHNYIGTEHLLLALLELEDGDGPLHRSGVDKSRAEADLITTLASLTGANAAGATDAGATDAG", "soluble on expression in E. coli": "soluble"}
{"sequence": "MDFVSEMNKILQMELEQFKEFIQKKLEEDKNYLEKLFWLPNGSQMTVLNYLIEQYSEPKLGIDDANRDLLAKIDFVLHEAKDVNVGEPLHQAIVAGKISLALHLLGVDENNFTPGESEKTDVLSILSKVRKKIEESFNHVKRCFFDVDKRDGYGRTLLSLALDAKRQELLIAILARNPIVHATTLRSSAYVPFQPIHQAVVLDYAEGITLLASMGAQLTNPLGSMRDTPVILAARLGKINALAALLELPTQSLSLESENNHLFEDKQTGHTAVEELCERMANENDKADALRGIAMLICRGAEPPRNEKMRNLLSSNRVAFLKAVSTYLADKPQLVDAFVERCHLRESALHNIVYADHSWGSSIRHLLGVPSEAALIVEELVTRKYSDPSFASENVSSLSTTATENLRSERNPLKLYAEFVRRYTQAYDSQMITNRWSTMRWMIAEGNCDWDTVVRYSKNHPTSRTRIVLNEMFNPIPRVHEDIESQQSSPRVVLK", "soluble on expression in E. coli": "not soluble"}
